We go through 3 molecules from article PMC5378721, “The Proteasomal ATPases Use a Slow but Highly Processive Strategy to Unfold Proteins” (Frontiers in Molecular Biosciences, 2017).

One may read the Km as the concentration of substrate that gives half-maximal velocity.

Data set [1] concerns the target T1, PAN (Proteasome Activating Nucleotidase), with T20S (Methanocaldococcus jannaschii, UniProt Q58576).
T1 construct: homohexamer; with Proteasome subunit alpha (20S proteasome of Thermoplasma acidophilum, T20S); Proteasome subunit beta (20S proteasome of Thermoplasma acidophilum, T20S)
The data set can be described thus: GFPssrA unfolding, loss of fluorescence […], ATPγS:ATP ratio series. The data set is classed as biochemical. The note with it: competing with ATP, 2 mM total nucleotide, 0.2 μM GFPssrA, 400 nM T20S, 20 mM MgCl2, pH 7.5.

Data set [2] concerns the target PAN (Proteasome Activating Nucleotidase) (UniProt Q58576).
Substrate in the data set “purified protein”: Nc1ncnc2c1ncn2[C@@H]1O[C@H](COP(=O)(O)OP(=O)(O)OP(=O)(O)O)[C@@H](O)[C@H]1O
The experiment in a line: purified protein. The note with it: 0.2 μM GFPssrA, 400 nM T20S, 20 mM MgCl2, pH 7.5, ATP hydrolysis read-out, printed unit doubtful: ATP was varied 0–3 mM, so mM likely meant. The format is biochemical, Methanocaldococcus jannaschii.

T1 sequence (P25156 whole entry partner, one chain of several): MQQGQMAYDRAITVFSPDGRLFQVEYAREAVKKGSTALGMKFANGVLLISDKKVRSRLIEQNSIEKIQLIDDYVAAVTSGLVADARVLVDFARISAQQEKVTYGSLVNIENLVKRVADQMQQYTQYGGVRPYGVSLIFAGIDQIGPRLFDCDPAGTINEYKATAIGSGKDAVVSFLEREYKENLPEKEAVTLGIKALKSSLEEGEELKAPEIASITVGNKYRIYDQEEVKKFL
T1 sequence (P28061 9-211 partner, one chain of several): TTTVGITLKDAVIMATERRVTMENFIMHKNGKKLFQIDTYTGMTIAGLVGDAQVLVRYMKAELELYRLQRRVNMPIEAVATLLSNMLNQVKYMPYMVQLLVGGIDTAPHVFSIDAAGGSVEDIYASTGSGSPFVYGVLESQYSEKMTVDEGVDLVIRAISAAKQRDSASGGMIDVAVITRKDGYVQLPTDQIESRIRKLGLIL

As to `Nc1ncnc2c1ncn2[C@@H]1O[C@H](COP(=O)(O)OP(=O)(O)OP(O)(O)=S)[C@@H](O)[C@H]1O` [ATPγS], the “GFPssrA unfolding, loss of fluorescence 485/510, ATPγS:ATP ratio series” value in data set [1] is reported as “as the ATPγS:ATP ratio increased, GFPssrA unfolding rate decreased”. Consider “GFPssrA (GFP with an unstructured ssrA tag)”, for which the Km for GFPssrA in ATP-dependent unfolding by PAN (steady-state loss of GFP fluorescence, ex/em 485/510; GFPssrA 0 to 10 μM, 50 nM PAN, 400 nM T20S, 2 mM ATP) in data set [2] was 0.187 µM.

B1: PAN (Proteasome Activating Nucleotidase), with T20S (Methanocaldococcus jannaschii DSM 2661) (protein)
chain: MVFEEFISTELKKEKKAFTEEFKEEKEINDNSNLKNDLLKEELQEKARIAELESRILKLELEKKELERENLQLMKENEILRRELDRMRVPPLIVGTVVDKVGERKVVVKSSTGPSFLVNVSHFVNPDDLAPGKRVCLNQQTLTVVDVLPENKDYRAKAMEVDERPNVRYEDIGGLEKQMQEIREVVELPLKHPELFEKVGIEPPKGILLYGPPGTGKTLLAKAVATETNATFIRVVGSELVKKFIGEGASLVKDIFKLAKEKAPSIIFIDEIDAIAAKRTDALTGGDREVQRTLMQLLAEMDGFDARGDVKIIGATNRPDILDPAILRPGRFDRIIEVPAPDEKGRLEILKIHTRKMNLAEDVNLEEIAKMTEGCVGAELKAICTEAGMNAIRELRDYVTMDDFRKAVEKIMEKKKVKVKEPAHLDVLYR
notes: homohexamer; with Proteasome subunit alpha (20S proteasome of Thermoplasma acidophilum, T20S); Proteasome subunit beta (20S proteasome of Thermoplasma acidophilum, T20S)
For B1, in the data set “purified protein”, the Km was determined as 0.000397 ± 1.7e-05 mM.
